T1: chimpanzee PSMA extracellular domain (PSMW8), 6His and Avi tag (chimpanzee, UniProt Q04609 44-750 (human entry), biotinylated in bead-based selections and the ELISA screen)
T1 construct: Cloned along with a 6His and Avi tag; Buffer with ZnCl2 to stabilise PSMA dimerisation; also called pan 229
T1 chain: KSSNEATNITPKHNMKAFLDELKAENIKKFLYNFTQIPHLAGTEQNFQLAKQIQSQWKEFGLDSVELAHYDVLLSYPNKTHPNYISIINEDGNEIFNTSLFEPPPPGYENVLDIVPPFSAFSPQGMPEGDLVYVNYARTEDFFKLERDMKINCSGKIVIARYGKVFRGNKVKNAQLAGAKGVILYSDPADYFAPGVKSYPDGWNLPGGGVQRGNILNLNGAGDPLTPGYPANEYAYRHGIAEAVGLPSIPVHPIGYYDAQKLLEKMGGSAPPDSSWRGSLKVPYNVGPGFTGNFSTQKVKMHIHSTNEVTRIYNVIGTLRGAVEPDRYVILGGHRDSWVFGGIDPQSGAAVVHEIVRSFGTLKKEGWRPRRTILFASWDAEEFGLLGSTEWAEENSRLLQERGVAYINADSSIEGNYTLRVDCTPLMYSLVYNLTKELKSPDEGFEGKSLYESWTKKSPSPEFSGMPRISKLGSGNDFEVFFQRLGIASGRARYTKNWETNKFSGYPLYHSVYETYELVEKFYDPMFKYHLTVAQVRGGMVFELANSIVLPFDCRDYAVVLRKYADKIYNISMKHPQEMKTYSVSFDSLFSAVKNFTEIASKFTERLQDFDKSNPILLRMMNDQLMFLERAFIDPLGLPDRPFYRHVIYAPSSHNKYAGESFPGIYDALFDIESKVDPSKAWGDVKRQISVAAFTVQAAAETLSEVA

T2: isolated cynomolgus PSMA (cynoPSMA) extracellular domain, Fc removed (cynomolgus, UniProt Q04609 44-750 (human entry), N-linked glycans seen at Asn-76, -121, -140, -195, -459, -476, -613 and -638 (numbering of SEQ ID NO: 141))
T2 construct: Expressed in GnTI- cells as a C-terminal fusion to huIgG1 Fc; the ECD starts at residue 44 of that entry; the structure includes residues 57-750; also called cynomolgous PSMA dimer
T2 chain: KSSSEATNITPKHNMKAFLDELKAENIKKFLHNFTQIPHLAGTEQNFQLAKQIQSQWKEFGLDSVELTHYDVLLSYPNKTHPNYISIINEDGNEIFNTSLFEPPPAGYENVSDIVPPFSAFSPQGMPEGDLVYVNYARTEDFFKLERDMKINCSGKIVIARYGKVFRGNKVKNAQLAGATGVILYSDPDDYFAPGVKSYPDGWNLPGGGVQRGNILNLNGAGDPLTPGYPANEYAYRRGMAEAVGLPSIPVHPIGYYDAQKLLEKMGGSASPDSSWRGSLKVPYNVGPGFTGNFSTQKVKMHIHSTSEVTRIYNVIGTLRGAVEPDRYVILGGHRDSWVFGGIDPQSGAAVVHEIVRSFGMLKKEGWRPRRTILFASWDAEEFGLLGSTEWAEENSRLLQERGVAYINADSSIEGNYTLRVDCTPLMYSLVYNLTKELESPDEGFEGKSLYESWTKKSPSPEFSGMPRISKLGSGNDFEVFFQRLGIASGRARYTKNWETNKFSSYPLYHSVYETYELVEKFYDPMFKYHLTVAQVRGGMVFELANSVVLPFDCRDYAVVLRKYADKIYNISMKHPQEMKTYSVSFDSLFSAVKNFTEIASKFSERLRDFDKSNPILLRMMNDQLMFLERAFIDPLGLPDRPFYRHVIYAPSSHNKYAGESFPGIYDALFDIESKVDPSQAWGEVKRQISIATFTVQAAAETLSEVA

B1: P233FR9_H10 (designed binder)
chain: LPAPKNLVVSRVTEDSARLSWTAPDAAFDSFAIGYWEWDDDGEAIVLTVPGSERSYDLTGLKPGTEYPVYIAGVKGGQWSFPLSAIFTT
notes: also called H10 FN3 domain; P233FR9_10; not shown: C-terminal poly-histidine tag
B2: CD3B154 (antibody, human IgG1, V domains shown)
VH: EVQLLESGGGLVQPGGSLRLSCAASGFTFNTYAMNWVRQAPGKGLEWVARIRSKYNNYATYYADSVKGRFTISRDNSKNTLYLQMNSLRAEDTAVYYCVKHGNFGNSYVSWFAYWGQGTLVTVSS
VL: QTVVTQEPSLTVSPGGTVTLTCRSSTGAVTTSNYANWVQQKPGQAPRGLIGGTNKRAPGTPARFSGSLLGGKAALTLSGVQPEDEAEYYCALWYSNLWVFGGGTKLTVL
notes: Humanized SP34 variant; human IgG1 constant region with L234A, L235A, F405L; human lambda constant region; also called CDB154
B3: CD3B150 (antibody, human IgG1, V domains shown)
VH: EVQLLESGGGLVQPGGSLRLSCAASGFTFNTYAMNWVRQAPGKGLEWVARIRSKYNNYATYYADSVKGRFTISRDNSKNTLYLQMNSLRAEDTAVYYCAKHGNFGNSYVSWFAYWGQGTLVTVSS
VL: QTVVTQEPSLTVSPGGTVTLTCRSSTGAVTTSNYANWVQQKPGQAPRGLIGGTNKRAPGTPARFSGSLLGGKAALTLSGVQPEDEAEYYCALWYSNLWVFGGGTKLTVL
notes: Humanized SP34 variant; human IgG1 constant region with L234A, L235A, F405L; human lambda constant region; also called CDB150
B4: CD3B151 (antibody, human IgG1, V domains shown)
VH: EVQLLESGGGLVQPGGSLRLSCAASGFTFNTYAMNWVRQAPGKGLEWVARIRSKYNNYATYYADSVKGRFTISRDNSKNTLYLQMNSLRAEDTAVYYCVKHGNFGNSYVSWFAYWGQGTLVTVSS
VL: QAVVTQEPSLTVSPGGTVTLTCRSSTGAVTTSNYANWVQQKPGQAPRGLIGGTNKRAPGTPARFSGSLLGGKAALTLSGAQPEDEAEYYCALWYSNLWVFGGGTKLTVL
notes: Humanized SP34 variant; human IgG1 constant region with L234A, L235A, F405L; human lambda constant region; also called CDB151
B5: G11 (antibody, V domains shown)
VH: EVQLLESGGGLVQPGGSLRLSCAASGFTFSSYGMSWVRQAPGKGLEWVSGINGGGGSKYYADSVKGRFTISRDNSKNTLYLQMNSLRAEDTAVYYCAKTSAQRFDYWGQGTLVTVSS
VL: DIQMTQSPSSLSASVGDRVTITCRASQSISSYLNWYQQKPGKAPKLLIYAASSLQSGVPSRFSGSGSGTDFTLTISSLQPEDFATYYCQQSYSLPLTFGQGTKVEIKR
notes: In-house phage-derived anti-CD3 antibody; non-cyno cross-reactive, agonistic; positive control; also called G11 mAb
B6: CD3B144 (antibody, human IgG1, V domains shown)
VH: EVQLVESGGGLVQPGGSLRLSCAASGFTFNTYAMNWVRQAPGKGLEWVARIRSKYNNYATYYAASVKGRFTISRDDSKNSLYLQMNSLKTEDTAVYYCARHGNFGNSYVSWFAYWGQGTLVTVSS
VL: QSVLTQPPSVSAAPGQKVTISCRSSTGAVTTSNYANWVQQLPGTAPKGLIGGTNKRAPGIPDRFSGSKSGTSATLGITGLQTGDEADYYCALWYSNLWVFGGGTKLTVL
notes: Humanized SP34 variant; human IgG1 constant region with L234A, L235A, F405L; human lambda constant region; also called CDB144
B7: CD3B152 (antibody, human IgG1, V domains shown)
VH: EVQLLESGGGLVQPGGSLRLSCAASGFTFNTYAMNWVRQAPGKGLEWVARIRSKYNNYATYYADSVKGRFTISRDNSKNTLYLQMNSLRAEDTAVYYCVKHGNFGNSYVSWFAYWGQGTLVTVSS
VL: QSVLTQPPSVSAAPGQKVTISCRSSTGAVTTSNYANWVQQLPGTAPKGLIGGTNKRAPGIPDRFSGSKSGTSATLGITGLQTGDEADYYCALWYSNLWVFGGGTKLTVL
notes: Humanized SP34 variant; human IgG1 constant region with L234A, L235A, F405L; human lambda constant region; also called CDB152

Key:
[1] = biological target: T1, chimpanzee PSMA extracellular domain …; experiment: hit from CIS-display panning and ELISA screen on PSMA of this species (column Antigen species)
[2] = biological target: T3, human PSMA on tumor cells (LNCaP, MDA-PCA-2B, VCAP, 22Rv1) (human, UniProt Q04609 1-750); experiment: cell-based or functional assay
T3 sequence (Q04609 whole entry): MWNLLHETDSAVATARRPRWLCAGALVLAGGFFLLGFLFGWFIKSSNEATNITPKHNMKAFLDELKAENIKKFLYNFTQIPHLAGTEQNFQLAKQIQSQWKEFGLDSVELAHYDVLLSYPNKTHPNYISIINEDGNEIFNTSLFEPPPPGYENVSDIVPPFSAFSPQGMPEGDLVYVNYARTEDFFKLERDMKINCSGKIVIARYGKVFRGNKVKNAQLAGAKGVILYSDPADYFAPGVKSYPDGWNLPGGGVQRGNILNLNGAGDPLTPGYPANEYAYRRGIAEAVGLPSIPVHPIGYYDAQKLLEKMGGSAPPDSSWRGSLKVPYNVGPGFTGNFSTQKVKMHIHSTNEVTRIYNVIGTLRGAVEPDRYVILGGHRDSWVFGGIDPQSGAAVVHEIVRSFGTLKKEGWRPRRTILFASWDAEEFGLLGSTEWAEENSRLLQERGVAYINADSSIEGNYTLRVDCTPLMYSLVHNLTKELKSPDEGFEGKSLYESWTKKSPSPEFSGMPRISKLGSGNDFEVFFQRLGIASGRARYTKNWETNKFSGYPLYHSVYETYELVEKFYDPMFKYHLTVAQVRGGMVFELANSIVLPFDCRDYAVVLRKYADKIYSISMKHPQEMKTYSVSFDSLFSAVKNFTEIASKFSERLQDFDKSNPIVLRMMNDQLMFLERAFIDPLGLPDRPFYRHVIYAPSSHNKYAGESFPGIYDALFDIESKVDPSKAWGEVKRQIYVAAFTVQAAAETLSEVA

[3] = biological target: T2, isolated cynomolgus PSMA (cynoPSMA) …; experiment: X-ray crystal structure of the complex
Protocol: The H10 FN3 Domain/cynoPSMA complex was prepared by mixing cynoPSMA with H10 FN3 domain at a molar ratio of 1:3 (excess FN3 domain) while dialyzing for 48 h at 4° C. against 20 mM Hepes pH 7.0, 0.5 mM ZnCl₂. The complex was then eluted from a monoS column with a gradient of 48-68 mM NaCl, 20 mM Hepes pH 7.5, 10% glycerol and concentrated to 3.4 mg/mL. Crystals suitable for X-diffraction were obtained from 25% PEG 3 kDa, 0.2 M NH₄Cl, 0.1 M Na Acetate pH 4.5 using the sitting drop vapor-diffusion method at 20° C.
For X-ray data collection, the crystal was soaked for a few seconds in a cryo-protectant solution containing mother liquor supplemented with 20% glycerol, and then frozen in liquid nitrogen. X-ray diffraction data were collected with a Dectris Pilatus 6M Pixel Array detector at the beamline 17-ID of the Advanced Photon Source (APS) at Argonne National Laboratory. Diffraction data were processed with the program HKL2000 (Otwinowski & Minor, 1997).

[4] = biological target: T3, human PSMA on tumor cells (LNCaP, …); experiment: cell-based or functional assay; remark: listed apart in the source
[5] = biological target: T4, cynomolgus CD3E on primary cynomolgus CD4+ T cells (cynomolgus, UniProt Q95LI5 22-198); experiment: flow cytometry on primary cynomolgus CD4+ T cells
T4 construct: whole, on cells; On the cells CD3E stands in the CD3/T cell receptor complex
T4 sequence (Q95LI5 22-198): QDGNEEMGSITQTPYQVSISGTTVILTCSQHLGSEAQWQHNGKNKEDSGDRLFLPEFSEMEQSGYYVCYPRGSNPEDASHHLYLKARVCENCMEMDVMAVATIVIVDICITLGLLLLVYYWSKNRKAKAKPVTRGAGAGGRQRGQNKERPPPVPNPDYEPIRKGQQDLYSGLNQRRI
Protocol: (§1) The resulting panel of anti-CD3 antibodies was tested for binding against cell-surface CD3E on primary human T cells. To do this, binding of antibodies from expression supernatants was visualized using a polyclonal anti-human secondary antibody and analyzed by flow cytometry. Briefly, binding of anti-CD3 antibodies to cell-surface CD3E was assessed by flow cytometry using primary Human T lymphocytes purified by negative selection (Biological Specialty, Colmar, USA). Expression supernatants or purified antibodies were normalized to 10 μg/ml in media or FACS buffer (BD BioSciences), respectively. 2×10⁵ cells were aliquoted into wells of a 96 well round-bottomed plate (CoStar) for labeling. Antibodies in expression supernatant were added to cells and incubated for 45 min at 4° C. Following centrifugation at 1300 rpm for 3 min and removal of supernatant, 50 μL of anti-human IgG (H+L) Alexa Fluor 647 secondary antibody (Life technologies Inc.) was incubated with the cells at a final concentration of 10 μg/mL for 30 min at 4° C. away from direct light. Following washing and resuspension in 30 μL FACs buffer (BD BioSciences). Sample collection was performed on an Intellicyt HTFC system using ForeCyt software. Viable single cells were gated prior to analysis of binding using the green or red fixable live/dead dyes (Life Technologies Inc.) and forward/side scatter area and height parameters, respectively. Graphs were generated in GraphPad Prism version 5 using mean fluorescence intensity values.
Binding analysis of the anti-CD3 hits to primary cynomolgusCD4+ T cells was then tested in order to assess the retention of cross-reactivity. Purified CD4+ T cells from the peripheral blood of cynomolgus monkeys (Zen Bio, Triangle Research Park, USA were used). Assay protocols were similar to those described above. […] This included the strong binders CD3B150, CD3B151 and CD3B154, in which binding was reduced, and several weak binders where binding could no longer be detected over background.

[6] = biological target: T5, cell-surface CD3E on primary human T cells (human, UniProt P07766 23-207); experiment: flow cytometry on primary human T cells, anti-human IgG Alexa Fluor 647 secondary
T5 construct: whole, on cells; On the cells CD3E stands in the CD3/T cell receptor complex; also called human CD3
T5 sequence (P07766 23-207): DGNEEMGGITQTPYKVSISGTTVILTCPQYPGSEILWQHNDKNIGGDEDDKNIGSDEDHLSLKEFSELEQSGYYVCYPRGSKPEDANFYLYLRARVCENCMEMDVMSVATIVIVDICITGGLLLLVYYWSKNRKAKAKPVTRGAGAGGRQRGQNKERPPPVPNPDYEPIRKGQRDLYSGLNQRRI
Protocol: as §1
Two in-house phage-derived antibodies with the same Fc region as the therapeutic antibodies were used as controls: G11 (HC SEQ ID NO:176, LC SEQ ID NO:177), a non-cyno cross-reactive, agonistic antibody was used as a positive control and CD3B94 (HC-SEQ ID NO:178, LC—SEQ ID NO:179) a non-binder/non-agonistic antibody was used to assess non-specific binding. The commercial SP34 antibody was not used as a comparator in this assay since it is a mouse antibody and the use of a different secondary detection reagent would have prohibited direct comparison with the variants tested.

[7] = biological target: T5, cell-surface CD3E on primary human T …; experiment: flow cytometry on primary human T cells, positive control
Protocol: as §1, with “Viable single cells were gated prior to analysis of binding using the green or red fixable live/dead dyes (Life Technologies Inc.) and forward/side scatter area and height parameters, respectively.” left out, “values. […]” for “values.”

[8] = biological target: T4, cynomolgus CD3E on primary cynomolgus …; experiment: stated for the flow cytometry assay on primary cynomolgus CD4+ T cells

| Binder | binding result [5] | binding result [6] | other results |
| --- | --- | --- | --- |
| B1 | – | – | binding result [1]: binds; LNCaP IC50 (nM), cytotoxicity of the FN3 domain-vcMMAF conjugate (CellTiter-Glo) [2]: 0.4 nM; binding result [3]: binds; LNCaP cells IC50 (nM), cytotoxicity of FN3 domain-drug conjugate [4]: 0.5 nM; MDA-PCA-2B cells IC50 (nM), cytotoxicity of FN3 domain-drug conjugate [4]: 5.8 nM; VCAP cells IC50 (nM), cytotoxicity of FN3 domain-drug conjugate [4]: 25.9 nM |
| B2 | binds | binds | – |
| B3 | binds | binds | – |
| B4 | binds | binds | – |
| B5 | – | – | binding result [7]: binds; binding result [8]: no binding |
| B6 | – | no binding | – |
| B7 | – | no binding | – |
